Results on one molecule are retold here after US20190077860A1 (EISAI R AND D MANAGEMENT, published 2019).

Where only a bound is given, the exact number is not on record here.

Assay [1] deals with T1, mouse EphA4 extracellular region-SEAP-His protein (mouse). Description: SPR (Biacore A100), antibody captured, EphA4-SEAP-His analyte. The method, then:
The binding affinity of antibody A obtained in Example 1 for mouse and human EphA4 was determined by surface plasmon resonance (SPR) using Biacore A100 (GE Healthcare). First, a rat anti-mouse IgG₁ antibody produced with a conventional procedure by immunizing rat with a mouse IgG₁ antibody was immobilized on sensor chip CM5. The immobilization of the rat anti-mouse IgG1 antibody on sensor chip CM5 was performed by the amine coupling method using N-hydroxysuccinimide (NHS) and N-ethyl-N′-(3-dimethylaminopropyl)carbodiimide hydrochloride (EDC). Ethanolamine was used in blocking (the sensor chip and the reagents for immobilization were all manufactured by GE Healthcare). The antibody was diluted with a buffer solution for immobilization (10 mM sodium acetate, pH 4.5) into 1 to 2 μg/mL and immobilized on the sensor chip according to the protocol attached to Biacore A100. Antibody A was diluted with a running buffer solution HBS-EP (GE Healthcare, BR-1001-88), injected onto a flow cell for 120 seconds, and captured (amount of the antibody captured: approximately 70 to 100 RU). Subsequently, mouse or human EphA4 extracellular region-SEAP-His serially diluted in the range of 50, 25, 12.5, 6.3, 3.1, 1.6, 0.8, and 0 nM using HBS-EP was added to the sensor chip for 120 seconds. […]
For orientation: Surface plasmon resonance follows binding to a sensor surface in real time, without labels.

For assay [2], the target named is T2, human EphA4 extracellular region-SEAP-His protein (human, UniProt P54764 20-547).
T2 construct: also called hEphA4-SEAP-His
T2 sequence (P54764 20-547): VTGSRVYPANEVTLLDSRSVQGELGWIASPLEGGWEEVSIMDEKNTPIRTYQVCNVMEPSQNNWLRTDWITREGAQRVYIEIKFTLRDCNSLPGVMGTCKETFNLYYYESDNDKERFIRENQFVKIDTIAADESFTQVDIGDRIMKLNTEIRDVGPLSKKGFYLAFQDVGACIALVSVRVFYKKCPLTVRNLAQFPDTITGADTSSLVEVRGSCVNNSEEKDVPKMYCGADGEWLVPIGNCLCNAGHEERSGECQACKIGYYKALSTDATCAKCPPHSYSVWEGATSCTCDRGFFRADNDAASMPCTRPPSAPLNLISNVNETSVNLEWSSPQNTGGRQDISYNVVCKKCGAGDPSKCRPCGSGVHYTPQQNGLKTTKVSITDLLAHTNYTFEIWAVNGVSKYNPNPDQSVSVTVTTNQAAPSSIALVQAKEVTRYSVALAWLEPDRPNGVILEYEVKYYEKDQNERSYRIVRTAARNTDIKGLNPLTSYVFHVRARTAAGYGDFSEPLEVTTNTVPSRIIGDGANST
The experiment in a line: competition ELISA, competitor human Ephrin A5-Fc. Here is the method:
Antibody A obtained in Example 1 was evaluated for its inhibitory activity against the binding between human EphA4 and its human ligand according to the following steps. Each well of a 96-well plate (Nunc) was coated with an anti-alkaline phosphatase antibody (Thermo Fisher Scientific). After incubation overnight at 4° C., each well was blocked with 1% BlockAce (DS Pharma Biomedical) at room temperature for 1 hour. After washing with 0.05% Tween 20/PBS (Thermo Fisher Scientific) three times, the human EphA4 extracellular region-SEAP-His protein obtained by the method of Example 1 was added (final concentration: 10 nM) to each well and incubated at room temperature for 1 hour. After washing three times, ligands and serially diluted antibody A (0, 0.003, 0.01, 0.03, 0.1, 0.3, 1, 3, 10, 30, 100, 300, 1000, and 3000 nM) or an EphA4 inhibitor KYL peptide ([…], 0, 0.003, 0.01, 0.03, 0.1, 0.3, 1, 3, 10, 30, 100, 300, 1000, and 3000 μM, its synthesis was outsourced to Toray Research Center) were added to each well. The ligands used were biotinylated human Ephrin A5-Fc chimera (R&D Systems, final concentration: 0.7 nM) and biotinylated human Ephrin B3-Fc chimera (R&D Systems, final concentration: 2.3 nM). […] The absorbance at 450 nm was read using a microplate reader (Molecular Devices or PerkinElmer). […]
Background: ELISA stands for enzyme-linked immunosorbent assay.

Assay [3] addresses rat EphA4 in rat hippocampal neurons (rat, UniProt D3ZZK3 20-986). Description: cell-based or functional assay.
The target of assay [4] is T1, mouse EphA4 extracellular …. Description: competition ELISA, mouse ligands. The method, then:
Antibody A obtained in Example 1 was evaluated for its inhibitory activity against the binding between mouse EphA4 and its mouse ligand according to the following steps. Each well of a 96-well plate (Nunc) was coated with an anti-alkaline phosphatase antibody (Thermo Fisher Scientific). After incubation overnight at 4° C., each well was blocked with 1% BlockAce (DS Pharma Biomedical) at room temperature for 1 hour. After washing with 0.05% Tween 20/PBS (Thermo Fisher Scientific) three times, the mouse EphA4 extracellular region-SEAP-His protein obtained by the method of Example 1 was added (final concentration: 10 nM) to each well and incubated at room temperature for 1 hour. After washing three times, ligands and serially diluted antibody A (0, 0.001, 0.003, 0.01, 0.03, 0.1, 0.3, 1,3, 10, 30, 100, 300, and 1000 nM) or a known EphA4 inhibitor KYL peptide ([…], 0, 0.003, 0.01, 0.03, 0.1, 0.3, 1, 3, 10, 30, and 100 μM, its synthesis was outsourced to Hokkaido System Science) or compound 1 (0, 0.03, 0.1, 0.3, 1,3, 10, 30, 100, 300, and 1000 μM, Formula 1, Matrix Scientific) were added to each well. The ligands used were mouse Ephrin A1-Fc chimera (R&D Systems, final concentration: 20 nM) and mouse Ephrin B2-Fc chimera (R&D Systems, final concentration: 0.6 nM). […] The absorbance at 450 nm was read using a microplate reader (Molecular Devices).

T1 sequence (chain, as listed by the source limits assumed): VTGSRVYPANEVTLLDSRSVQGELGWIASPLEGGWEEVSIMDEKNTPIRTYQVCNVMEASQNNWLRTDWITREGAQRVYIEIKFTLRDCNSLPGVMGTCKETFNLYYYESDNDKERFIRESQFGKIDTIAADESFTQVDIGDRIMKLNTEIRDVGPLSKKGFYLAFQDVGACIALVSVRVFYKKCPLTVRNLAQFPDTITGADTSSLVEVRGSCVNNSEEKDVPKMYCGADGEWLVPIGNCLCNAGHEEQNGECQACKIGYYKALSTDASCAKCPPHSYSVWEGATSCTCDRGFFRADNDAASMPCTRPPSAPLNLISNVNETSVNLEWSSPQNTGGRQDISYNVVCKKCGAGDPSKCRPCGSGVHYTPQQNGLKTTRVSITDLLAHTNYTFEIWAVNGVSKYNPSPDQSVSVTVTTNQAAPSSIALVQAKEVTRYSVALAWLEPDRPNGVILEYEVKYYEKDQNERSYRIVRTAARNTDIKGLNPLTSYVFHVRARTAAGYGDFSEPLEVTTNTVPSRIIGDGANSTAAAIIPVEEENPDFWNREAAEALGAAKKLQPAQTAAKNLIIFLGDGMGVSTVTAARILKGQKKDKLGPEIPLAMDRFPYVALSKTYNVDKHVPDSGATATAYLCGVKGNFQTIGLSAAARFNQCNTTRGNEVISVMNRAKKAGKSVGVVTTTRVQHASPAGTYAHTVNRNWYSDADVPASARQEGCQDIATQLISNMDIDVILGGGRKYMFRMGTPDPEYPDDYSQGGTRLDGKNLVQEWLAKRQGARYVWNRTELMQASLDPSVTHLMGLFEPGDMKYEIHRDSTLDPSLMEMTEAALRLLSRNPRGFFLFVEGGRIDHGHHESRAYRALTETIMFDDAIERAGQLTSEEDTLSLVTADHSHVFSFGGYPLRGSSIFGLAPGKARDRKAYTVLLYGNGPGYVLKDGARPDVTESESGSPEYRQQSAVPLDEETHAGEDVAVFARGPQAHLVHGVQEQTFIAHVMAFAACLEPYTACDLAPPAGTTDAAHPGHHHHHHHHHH

B1: antibody A (antibody, mouse IgG1, kappa, V domains shown)
VH: QIQLVQSGPELKKPGETVKISCKASGYTFTDYSMHWVKQAPGKGLKWMGWINTETGEPTYADDFKGRFAFSLETSASTAYLQINNLKNEDTATYFCARIPLYYYGSRYWYFDVWGAGTTVTVSS
VL: DIQMTQSPASLSVSVGETVTITCRASENIYRNLAWYQQKQGKSPQLLVYAATNLADGVPSRFSGSGSGTQYSLKINSLQSEDFGSYYCQHFWGTPWTFGGGTKLEIKR
notes: mouse IgG1 heavy chain, kappa light chain; purified from hybridoma supernatant; also called anti-EphA4 monoclonal antibody; antibody A-IgG
By Kd is commonly meant the equilibrium constant for the complex coming apart. A lower Kd goes with tighter binding. As usually defined, the IC50 is the concentration at which inhibition is half-maximal. A high value points to weaker potency. Regarding B1, the Kd in assay [1] came out at 0.729 nM. In addition, the IC50 in assay [2] is roughly 2.7 nM. Also, the “IC50 of suppression of EphA4 autophosphorylation induced by mouse EphrinA1 in the hippocampal neurons” value in assay [3] was 24.2 nM. Also, the “fold activity against KYL peptide” value in assay [4] is no less than 1000 fold.
